# Source: the supplement of paper PMC7125110
# ± gives the standard error. Variants at the floor of the assay were thinned out.
# B1: glmS ribozyme (parent)
# chain: AUAAAAGCGCCAGAACUACAGAAAUGUAGUUGACGAGGAGGAGGUUUAUCGAAUUUUCGGCGGAUGCCUCCAAA
# Key:
# Details in all cases: with glucosamine-6-phosphate
# glucosamine-6-phosphate [1] = variants of: B1; assay: self-cleavage kobs at 40 uM GlcN6P; higher = faster cleavage; RNA array
# Outline: (§1)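 On sequenced MiSeq chips, barcoded ribozyme variants were made in situ by E. coli RNA polymerase and followed at 37 °C through a hybridised Cy3 probe. Glucosamine-6-phosphate was flowed in at 40 μM to 10 mM in HEPES/KCl/Mg(OAc)2 buffer. Exponential fits to normalised per-tile medians gave kobs, and weighted Michaelis–Menten fits gave kcat and KM.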
# glucosamine-6-phosphate [2] = variants of: B1; assay: self-cleavage kobs at 640 uM GlcN6P; higher = faster cleavage; RNA array
# Outline: as §1
# glucosamine-6-phosphate [3] = variants of: B1; assay: self-cleavage kobs at 2500 uM GlcN6P; higher = faster cleavage; RNA array
# Outline: as §1
# glucosamine-6-phosphate [4] = variants of: B1; assay: self-cleavage kobs at 160 uM GlcN6P; higher = faster cleavage; RNA array
# Outline: as §1
# glucosamine-6-phosphate [5] = variants of: B1; assay: self-cleavage kobs at 10000 uM GlcN6P; higher = faster cleavage; RNA array
# Outline: as §1
Variant,self-cleavage kobs at 40 uM GlcN6P (glucosamine-6-phosphate [1]) [s⁻¹],self-cleavage kobs at 640 uM GlcN6P (glucosamine-6-phosphate [2]) [s⁻¹],self-cleavage kobs at 2500 uM GlcN6P (glucosamine-6-phosphate [3]) [s⁻¹],self-cleavage kobs at 160 uM GlcN6P (glucosamine-6-phosphate [4]) [s⁻¹],self-cleavage kobs at 10000 uM GlcN6P (glucosamine-6-phosphate [5]) [s⁻¹]
C10A G43U U45A,< 1e-05,< 1e-05,< 1e-05,–,–
C8G A14G A15U G41C U47G U56A,–,< 1e-05,< 1e-05,< 1e-05,–
C8G G40A,< 1e-05,–,< 1e-05,< 1e-05,< 1e-05
G9A A14C A48C,< 1e-05,–,–,–,–
G41C C67G,< 1e-05,< 1e-05,< 1e-05,< 1e-05,< 1e-05
A15C U30G,0.00258 ± 0.00062,0.0305 ± 0.0089,0.0288 ± 0.011,0.00591 ± 0.0015,0.153 ± 0.058
U30A C50G U54A U69G,5.79e-05 ± 1.6e-05,–,–,–,–
A33U C50U C61A C68G C70U,–,0.000229 ± 6.4e-05,–,0.000144 ± 4.4e-05,–
G44C C68A,< 1e-05,< 1e-05,< 1e-05,< 1e-05,< 1e-05
C8A G29C C50U,–,–,< 1e-05,< 1e-05,–
A52G C61G,< 1e-05,–,–,–,< 1e-05
C34U C58G C68U,0.000265 ± 9.2e-05,–,–,–,0.000425 ± 0.00014
C50G C70A C71G,7.15e-05 ± 1.7e-05,–,–,–,6.95e-05 ± 1.6e-05
G32U A36C C68A,< 1e-05,–,–,–,< 1e-05
C34A G37U,< 1e-05,–,< 1e-05,< 1e-05,–
A36G G38U,–,–,–,< 1e-05,< 1e-05
U56A C70U C71U,5.46e-05 ± 1.5e-05,8.84e-05 ± 1.7e-05,0.000232 ± 5.2e-05,–,8.85e-05 ± 1.7e-05
G9C C10U G44A U54A C71G,< 1e-05,–,–,–,–
G29A G63C C70G,–,0.000155 ± 4.1e-05,7.4e-05 ± 2.1e-05,7.77e-05 ± 3e-05,–
C10U U56A G62A U65A U69G,–,–,–,3.94e-05 ± 1.6e-05,–
C34G A42G,< 1e-05,< 1e-05,< 1e-05,–,< 1e-05
U30C G32U C34G C50G,–,8.64e-05 ± 3.3e-05,9.31e-05 ± 2.4e-05,7.22e-05 ± 2.9e-05,–
A18C,0.00108 ± 0.0003,0.0169 ± 0.0041,–,0.00647 ± 0.0023,–
C16G G35U,< 1e-05,< 1e-05,< 1e-05,< 1e-05,< 1e-05

Variant,self-cleavage kobs at 40 uM GlcN6P (glucosamine-6-phosphate [1]) [s⁻¹],self-cleavage kobs at 640 uM GlcN6P (glucosamine-6-phosphate [2]) [s⁻¹],self-cleavage kobs at 2500 uM GlcN6P (glucosamine-6-phosphate [3]) [s⁻¹],self-cleavage kobs at 160 uM GlcN6P (glucosamine-6-phosphate [4]) [s⁻¹],self-cleavage kobs at 10000 uM GlcN6P (glucosamine-6-phosphate [5]) [s⁻¹]
U55C U56A,0.000256 ± 4.6e-05,–,0.0131 ± 0.0031,–,0.0148 ± 0.0032
G32C C34A,< 1e-05,< 1e-05,–,< 1e-05,< 1e-05
G13A A15U A33U G37U U46C U49A,< 1e-05,–,< 1e-05,–,–
C16U G29C C67A,–,0.000258 ± 4.5e-05,0.00106 ± 0.00017,0.00011 ± 2.1e-05,–
A14C U47G C70A,–,0.000114 ± 3.4e-05,6.72e-05 ± 1.5e-05,6.05e-05 ± 2.8e-05,–
G40U A64U,< 1e-05,–,–,< 1e-05,–
U31C A33C A36G C71G,< 1e-05,–,–,–,–
G29A G32A G62U,–,–,–,< 1e-05,–
G41U U57G,< 1e-05,< 1e-05,–,< 1e-05,–
G44U G51C,< 1e-05,< 1e-05,< 1e-05,< 1e-05,< 1e-05
C8A U49A,< 1e-05,< 1e-05,–,–,–
G41C A52C C68U,–,–,–,< 1e-05,–
G7U G13A C67U,< 1e-05,–,–,–,–
U31G G35C U46A C70G,–,< 1e-05,< 1e-05,< 1e-05,–
C8U A42C,< 1e-05,< 1e-05,< 1e-05,< 1e-05,< 1e-05
G41C C58A,< 1e-05,–,–,< 1e-05,< 1e-05
G29U C34U U46G U47G G63A,–,< 1e-05,< 1e-05,< 1e-05,–
A36C U56A,–,< 1e-05,< 1e-05,< 1e-05,–
A14G G44C C61A C68G,< 1e-05,–,–,–,–
G32C G38A C50G,–,0.000119 ± 3e-05,8.89e-05 ± 2.7e-05,0.000156 ± 5.3e-05,–
U31C G44A C71U,< 1e-05,< 1e-05,–,< 1e-05,–
C8G G9U G29C G32C A52C,–,–,< 1e-05,< 1e-05,–
G35A C70U,< 1e-05,< 1e-05,< 1e-05,< 1e-05,< 1e-05
C50U C61G G63U,< 1e-05,–,–,–,–

Variant,self-cleavage kobs at 40 uM GlcN6P (glucosamine-6-phosphate [1]) [s⁻¹],self-cleavage kobs at 640 uM GlcN6P (glucosamine-6-phosphate [2]) [s⁻¹],self-cleavage kobs at 2500 uM GlcN6P (glucosamine-6-phosphate [3]) [s⁻¹],self-cleavage kobs at 160 uM GlcN6P (glucosamine-6-phosphate [4]) [s⁻¹],self-cleavage kobs at 10000 uM GlcN6P (glucosamine-6-phosphate [5]) [s⁻¹]
G29U G37C A42U,< 1e-05,< 1e-05,< 1e-05,–,–
A14U U45A U46A,–,–,0.00178 ± 0.00057,0.00056 ± 0.00015,–
U55C C61U,< 1e-05,–,–,–,–
A15U C50G C61A,0.000142 ± 3e-05,–,–,–,7.29e-05 ± 1.7e-05
G13C G32C U47C,< 1e-05,–,–,–,–
C10G G40A C70A,–,< 1e-05,< 1e-05,< 1e-05,< 1e-05
G32C G35A,–,< 1e-05,< 1e-05,< 1e-05,< 1e-05
A52C G59U,–,< 1e-05,< 1e-05,< 1e-05,< 1e-05
A14G G44U U49C,< 1e-05,–,–,–,–
A6G G43U U65C,–,< 1e-05,< 1e-05,< 1e-05,–
G32A U56G,–,0.000151 ± 2e-05,0.000254 ± 3.2e-05,9.78e-05 ± 3.6e-05,0.000906 ± 8.9e-05
A15G C68A C70U,< 1e-05,–,–,–,–
U46C U54A C61U,–,–,< 1e-05,< 1e-05,–
C11G U49G U57C,–,–,–,< 1e-05,–
G9A G32C C67U,–,< 1e-05,–,< 1e-05,–
G29U C70U,0.000204 ± 2.4e-05,0.000574 ± 7.2e-05,0.00187 ± 0.00047,0.000273 ± 4.2e-05,0.00452 ± 0.00093
A12C G37U C50G U54G,–,–,9.24e-05 ± 3.8e-05,4.97e-05 ± 2.2e-05,–
A39G G41A G59U G60U,–,–,–,< 1e-05,–
U30C G43A U46A,< 1e-05,–,–,–,–
C8G U30A U31C,< 1e-05,–,–,–,< 1e-05
C10U C11U G13A,–,< 1e-05,< 1e-05,< 1e-05,–
A6G A33U,< 1e-05,< 1e-05,< 1e-05,< 1e-05,–
C8U A12G C50U C68G,3.9e-05 ± 1.6e-05,0.00022 ± 8.6e-05,0.000476 ± 0.00018,0.000221 ± 8.4e-05,6.84e-05 ± 1.7e-05
G7U U49G,–,< 1e-05,< 1e-05,< 1e-05,< 1e-05

Variant,self-cleavage kobs at 40 uM GlcN6P (glucosamine-6-phosphate [1]) [s⁻¹],self-cleavage kobs at 640 uM GlcN6P (glucosamine-6-phosphate [2]) [s⁻¹],self-cleavage kobs at 2500 uM GlcN6P (glucosamine-6-phosphate [3]) [s⁻¹],self-cleavage kobs at 160 uM GlcN6P (glucosamine-6-phosphate [4]) [s⁻¹],self-cleavage kobs at 10000 uM GlcN6P (glucosamine-6-phosphate [5]) [s⁻¹]
G7A A52U G63C,< 1e-05,< 1e-05,< 1e-05,< 1e-05,–
G7U C19A,< 1e-05,< 1e-05,< 1e-05,< 1e-05,–
G59U G60A,–,< 1e-05,–,< 1e-05,–
A6C U47C U54A G59A C70U,< 1e-05,–,–,–,–
C16A U55A,7.92e-05 ± 1.5e-05,–,0.000515 ± 0.00022,–,0.00285 ± 0.00043
G32U A64G C71U,< 1e-05,–,0.000459 ± 0.00016,–,0.000175 ± 3.6e-05
G35C A64G,–,< 1e-05,< 1e-05,< 1e-05,–
A12G G40C G43C,< 1e-05,< 1e-05,–,–,< 1e-05
A53U C68U,0.000159 ± 2.1e-05,0.000788 ± 9.5e-05,0.00421 ± 0.00073,0.000357 ± 0.00011,0.00507 ± 0.00083
G7U U31G G62A,< 1e-05,–,< 1e-05,–,< 1e-05
U47C G60U,< 1e-05,< 1e-05,< 1e-05,< 1e-05,–
A14G C34A G38U,< 1e-05,–,–,–,–
C50U C61U,< 1e-05,< 1e-05,< 1e-05,–,< 1e-05
A12C G51U C58G C61A,–,–,–,< 1e-05,–
G37A U54A,7.84e-05 ± 1.8e-05,–,–,–,0.00478 ± 0.00082
G7U U45G C71A,< 1e-05,–,< 1e-05,–,< 1e-05
G51C G59U,< 1e-05,< 1e-05,–,< 1e-05,–
G7C U54A,< 1e-05,< 1e-05,–,–,< 1e-05
A36C G41U U45G C67G,< 1e-05,–,–,–,< 1e-05
G7U A33U A64G C70G,< 1e-05,–,–,–,–
C16A G29C G37U,< 1e-05,–,< 1e-05,–,–
G37C U54A U55C G63C U69G,< 1e-05,–,–,–,< 1e-05
G9C G29U U69A,< 1e-05,< 1e-05,< 1e-05,< 1e-05,< 1e-05
